T1: MKK7β(h) (human, UniProt O14733 1-419, limits assumed)
T1 sequence (looked up): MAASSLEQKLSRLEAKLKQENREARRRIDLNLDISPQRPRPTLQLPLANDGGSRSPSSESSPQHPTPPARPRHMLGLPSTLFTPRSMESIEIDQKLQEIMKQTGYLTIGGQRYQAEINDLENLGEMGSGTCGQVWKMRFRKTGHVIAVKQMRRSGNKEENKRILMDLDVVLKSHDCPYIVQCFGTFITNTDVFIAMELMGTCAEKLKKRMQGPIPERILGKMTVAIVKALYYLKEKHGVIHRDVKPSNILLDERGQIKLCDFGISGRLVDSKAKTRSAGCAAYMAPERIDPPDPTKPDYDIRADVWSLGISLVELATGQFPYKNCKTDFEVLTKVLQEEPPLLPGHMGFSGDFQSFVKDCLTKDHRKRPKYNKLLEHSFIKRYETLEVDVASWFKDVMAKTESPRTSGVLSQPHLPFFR

T2: EphA2(h) (human, UniProt P29317 559-976, limits assumed)
T2 sequence (looked up): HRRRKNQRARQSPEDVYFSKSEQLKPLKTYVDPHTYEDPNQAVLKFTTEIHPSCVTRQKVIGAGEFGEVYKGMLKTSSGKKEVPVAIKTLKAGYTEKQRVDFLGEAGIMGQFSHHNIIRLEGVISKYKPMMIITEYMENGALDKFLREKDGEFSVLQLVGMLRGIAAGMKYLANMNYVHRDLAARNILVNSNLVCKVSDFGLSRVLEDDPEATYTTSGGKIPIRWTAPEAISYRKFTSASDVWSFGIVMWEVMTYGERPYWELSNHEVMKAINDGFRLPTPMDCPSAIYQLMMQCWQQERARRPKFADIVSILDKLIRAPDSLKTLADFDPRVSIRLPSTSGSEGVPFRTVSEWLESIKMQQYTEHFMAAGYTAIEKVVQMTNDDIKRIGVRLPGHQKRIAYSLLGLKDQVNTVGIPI

T3: Axl(h) (human, UniProt P30530 473-894, limits assumed)
T3 sequence (looked up): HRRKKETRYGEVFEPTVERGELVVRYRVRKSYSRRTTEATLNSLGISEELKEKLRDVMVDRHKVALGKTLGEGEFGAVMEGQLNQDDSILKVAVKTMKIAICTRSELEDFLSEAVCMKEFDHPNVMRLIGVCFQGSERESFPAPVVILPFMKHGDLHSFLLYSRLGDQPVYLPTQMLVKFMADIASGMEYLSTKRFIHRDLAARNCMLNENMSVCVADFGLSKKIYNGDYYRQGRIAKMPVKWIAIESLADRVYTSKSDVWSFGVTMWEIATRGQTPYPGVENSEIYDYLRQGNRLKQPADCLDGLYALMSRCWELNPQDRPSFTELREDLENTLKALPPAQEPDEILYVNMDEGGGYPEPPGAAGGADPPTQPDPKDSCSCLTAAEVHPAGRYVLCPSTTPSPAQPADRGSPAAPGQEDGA

T4: EphA8(h) (human, UniProt P29322 564-1005, limits assumed)
T4 sequence (looked up): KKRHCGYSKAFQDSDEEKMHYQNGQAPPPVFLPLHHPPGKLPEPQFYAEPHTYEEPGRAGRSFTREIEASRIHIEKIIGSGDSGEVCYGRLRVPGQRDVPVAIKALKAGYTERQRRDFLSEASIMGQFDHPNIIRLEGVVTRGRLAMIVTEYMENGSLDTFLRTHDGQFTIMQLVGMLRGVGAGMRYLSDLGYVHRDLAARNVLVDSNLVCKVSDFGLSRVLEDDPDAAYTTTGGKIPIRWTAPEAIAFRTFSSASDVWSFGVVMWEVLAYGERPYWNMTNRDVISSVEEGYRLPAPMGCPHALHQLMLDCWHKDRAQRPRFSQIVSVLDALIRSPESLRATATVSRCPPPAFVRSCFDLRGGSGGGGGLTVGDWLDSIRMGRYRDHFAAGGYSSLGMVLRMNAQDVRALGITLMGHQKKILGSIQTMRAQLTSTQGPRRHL


Columns and labels:
Assay in all cases: cell-based or functional assay
Flt4(h) = Flt4(h) (human, UniProt P35916 800-1363, limits assumed)
HIPK1(h) = HIPK1(h) (human, UniProt Q86Z02 158-555, limits assumed)
MKK7β(h) = target: T1, MKK7β(h)
GSK3α(h) = GSK3α(h) (human, UniProt P49840 1-483)
Chain of GSK3α(h) (P49840 whole entry): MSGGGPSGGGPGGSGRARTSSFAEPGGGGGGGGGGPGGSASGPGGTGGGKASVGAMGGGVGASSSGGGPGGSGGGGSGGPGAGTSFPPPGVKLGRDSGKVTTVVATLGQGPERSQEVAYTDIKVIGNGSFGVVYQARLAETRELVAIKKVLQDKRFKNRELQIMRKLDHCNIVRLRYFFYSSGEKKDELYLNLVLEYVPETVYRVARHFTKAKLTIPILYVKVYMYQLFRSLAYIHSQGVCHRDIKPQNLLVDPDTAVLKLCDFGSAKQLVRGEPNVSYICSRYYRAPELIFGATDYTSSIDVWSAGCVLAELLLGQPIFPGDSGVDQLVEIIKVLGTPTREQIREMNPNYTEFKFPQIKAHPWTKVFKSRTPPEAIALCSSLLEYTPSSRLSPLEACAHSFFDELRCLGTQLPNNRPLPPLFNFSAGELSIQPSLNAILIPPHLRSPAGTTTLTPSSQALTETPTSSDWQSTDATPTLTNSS

PKCγ(h) = PKCγ(h) (human, UniProt P05129 1-697)
ASK1(h) = ASK1(h) (human, UniProt Q99683 649-946, limits assumed)
Aurora-B(h) = Aurora-B(h) (human, UniProt Q96GD4 1-344)
Chain of Aurora-B(h) (Q96GD4 whole entry): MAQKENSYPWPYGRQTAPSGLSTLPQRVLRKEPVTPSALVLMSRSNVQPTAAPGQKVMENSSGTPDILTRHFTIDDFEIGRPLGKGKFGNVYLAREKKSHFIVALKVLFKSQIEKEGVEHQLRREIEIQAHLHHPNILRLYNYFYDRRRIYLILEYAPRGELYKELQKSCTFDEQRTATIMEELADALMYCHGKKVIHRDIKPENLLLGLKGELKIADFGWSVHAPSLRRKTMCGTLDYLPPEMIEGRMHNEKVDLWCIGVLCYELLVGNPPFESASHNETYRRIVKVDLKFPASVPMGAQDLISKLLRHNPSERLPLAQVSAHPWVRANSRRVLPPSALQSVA

ROCK-II(h) = ROCK-II(h) (human, UniProt O75116 11-552, limits assumed)
Chain of ROCK-II(h) (O75116 11-552 limits assumed): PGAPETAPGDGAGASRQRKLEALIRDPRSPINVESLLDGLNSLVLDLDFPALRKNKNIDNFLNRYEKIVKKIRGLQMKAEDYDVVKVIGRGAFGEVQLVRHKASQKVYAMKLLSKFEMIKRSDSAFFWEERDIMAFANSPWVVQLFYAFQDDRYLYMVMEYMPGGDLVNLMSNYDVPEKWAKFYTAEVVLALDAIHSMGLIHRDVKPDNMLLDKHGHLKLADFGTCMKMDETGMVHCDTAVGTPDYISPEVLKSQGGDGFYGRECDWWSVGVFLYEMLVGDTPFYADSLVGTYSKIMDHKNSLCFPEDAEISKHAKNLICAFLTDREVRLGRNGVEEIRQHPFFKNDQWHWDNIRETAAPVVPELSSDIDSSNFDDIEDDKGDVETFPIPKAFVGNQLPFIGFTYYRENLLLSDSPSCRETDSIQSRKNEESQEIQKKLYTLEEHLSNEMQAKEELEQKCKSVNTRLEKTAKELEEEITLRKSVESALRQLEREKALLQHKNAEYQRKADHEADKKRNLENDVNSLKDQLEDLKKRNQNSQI

cKit(V654A)(h) = cKit(V654A)(h) (human, UniProt P10721 544-976)
Chain of cKit(V654A)(h) (P10721 544-976 V654A): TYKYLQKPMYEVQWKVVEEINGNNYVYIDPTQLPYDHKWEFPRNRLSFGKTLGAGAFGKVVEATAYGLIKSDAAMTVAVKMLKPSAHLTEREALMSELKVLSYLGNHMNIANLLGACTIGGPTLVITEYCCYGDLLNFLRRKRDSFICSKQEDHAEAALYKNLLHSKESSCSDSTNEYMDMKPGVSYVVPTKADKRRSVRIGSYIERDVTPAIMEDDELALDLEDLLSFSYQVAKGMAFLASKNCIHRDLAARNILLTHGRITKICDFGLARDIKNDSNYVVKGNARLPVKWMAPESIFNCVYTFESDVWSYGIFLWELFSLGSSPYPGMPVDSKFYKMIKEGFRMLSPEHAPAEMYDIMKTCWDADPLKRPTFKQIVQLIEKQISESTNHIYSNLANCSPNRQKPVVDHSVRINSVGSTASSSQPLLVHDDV

EphA2(h) = target: T2, EphA2(h)
CaMKIIγ(h) = CaMKIIγ(h) (human, UniProt Q13555 1-558, limits assumed)
Chain of CaMKIIγ(h) (Q13555 whole entry): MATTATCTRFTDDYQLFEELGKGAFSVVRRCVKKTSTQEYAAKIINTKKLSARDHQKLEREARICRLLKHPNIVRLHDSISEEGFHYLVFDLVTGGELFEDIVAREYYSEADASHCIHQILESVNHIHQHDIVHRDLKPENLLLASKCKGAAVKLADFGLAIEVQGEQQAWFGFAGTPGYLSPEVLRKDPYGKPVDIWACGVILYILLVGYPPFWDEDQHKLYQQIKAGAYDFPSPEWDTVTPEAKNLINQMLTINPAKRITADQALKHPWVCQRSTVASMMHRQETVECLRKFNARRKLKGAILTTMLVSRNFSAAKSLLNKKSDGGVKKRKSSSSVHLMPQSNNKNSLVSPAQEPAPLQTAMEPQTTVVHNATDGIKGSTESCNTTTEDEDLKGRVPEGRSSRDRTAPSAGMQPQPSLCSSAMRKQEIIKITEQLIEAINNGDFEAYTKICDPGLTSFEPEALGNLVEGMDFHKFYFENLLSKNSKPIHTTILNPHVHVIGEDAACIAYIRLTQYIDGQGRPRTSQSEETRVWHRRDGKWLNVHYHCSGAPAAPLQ

Abl(h) = Abl(h) (human, UniProt P00519 27-1130, limits assumed)
HIPK2(h) = HIPK2(h) (human, UniProt Q9H2X6 165-564, limits assumed)
Chain of HIPK2(h) (Q9H2X6 165-564 limits assumed): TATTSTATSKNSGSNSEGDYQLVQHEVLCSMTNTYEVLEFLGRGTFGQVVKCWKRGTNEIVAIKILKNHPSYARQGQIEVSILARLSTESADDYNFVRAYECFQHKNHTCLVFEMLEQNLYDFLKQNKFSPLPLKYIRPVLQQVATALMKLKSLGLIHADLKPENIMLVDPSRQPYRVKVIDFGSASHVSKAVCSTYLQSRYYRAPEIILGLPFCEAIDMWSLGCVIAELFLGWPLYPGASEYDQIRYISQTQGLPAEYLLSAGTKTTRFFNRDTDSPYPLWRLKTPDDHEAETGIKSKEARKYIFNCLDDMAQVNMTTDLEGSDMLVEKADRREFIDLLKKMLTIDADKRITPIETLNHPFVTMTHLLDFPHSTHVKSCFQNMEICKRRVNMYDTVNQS

Axl(h) = target: T3, Axl(h)
CDK1/cyclinB(h) = CDK1/cyclinB(h) (human, UniProt P06493 1-297; P14635 1-433)
Chain of CDK1/cyclinB(h) (P06493 whole entry, chain 1 of 2): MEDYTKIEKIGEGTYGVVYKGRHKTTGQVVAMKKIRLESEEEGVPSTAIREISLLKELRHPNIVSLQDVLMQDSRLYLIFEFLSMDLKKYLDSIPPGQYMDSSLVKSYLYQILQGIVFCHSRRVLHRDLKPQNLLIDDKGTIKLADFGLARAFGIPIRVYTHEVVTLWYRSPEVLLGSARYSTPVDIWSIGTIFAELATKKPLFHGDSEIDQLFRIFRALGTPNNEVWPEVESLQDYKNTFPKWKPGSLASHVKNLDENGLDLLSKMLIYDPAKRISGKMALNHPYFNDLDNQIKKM
Chain of CDK1/cyclinB(h) (P14635 whole entry, chain 2 of 2): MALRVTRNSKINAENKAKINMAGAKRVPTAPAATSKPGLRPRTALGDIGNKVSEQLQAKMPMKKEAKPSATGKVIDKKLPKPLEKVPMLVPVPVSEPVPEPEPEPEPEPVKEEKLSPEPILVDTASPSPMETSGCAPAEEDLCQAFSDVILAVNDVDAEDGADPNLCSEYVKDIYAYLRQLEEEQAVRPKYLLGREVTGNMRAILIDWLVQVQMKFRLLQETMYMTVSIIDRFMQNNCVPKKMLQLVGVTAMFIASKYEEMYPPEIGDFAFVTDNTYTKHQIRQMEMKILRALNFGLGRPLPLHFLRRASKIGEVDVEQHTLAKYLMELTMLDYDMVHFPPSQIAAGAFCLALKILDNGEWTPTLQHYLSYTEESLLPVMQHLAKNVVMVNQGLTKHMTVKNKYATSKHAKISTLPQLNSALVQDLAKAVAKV

EphA8(h) = target: T4, EphA8(h)
Rsk3(h) = Rsk3(h) (human, UniProt Q15349 1-733)
Chain of Rsk3(h) (Q15349 whole entry): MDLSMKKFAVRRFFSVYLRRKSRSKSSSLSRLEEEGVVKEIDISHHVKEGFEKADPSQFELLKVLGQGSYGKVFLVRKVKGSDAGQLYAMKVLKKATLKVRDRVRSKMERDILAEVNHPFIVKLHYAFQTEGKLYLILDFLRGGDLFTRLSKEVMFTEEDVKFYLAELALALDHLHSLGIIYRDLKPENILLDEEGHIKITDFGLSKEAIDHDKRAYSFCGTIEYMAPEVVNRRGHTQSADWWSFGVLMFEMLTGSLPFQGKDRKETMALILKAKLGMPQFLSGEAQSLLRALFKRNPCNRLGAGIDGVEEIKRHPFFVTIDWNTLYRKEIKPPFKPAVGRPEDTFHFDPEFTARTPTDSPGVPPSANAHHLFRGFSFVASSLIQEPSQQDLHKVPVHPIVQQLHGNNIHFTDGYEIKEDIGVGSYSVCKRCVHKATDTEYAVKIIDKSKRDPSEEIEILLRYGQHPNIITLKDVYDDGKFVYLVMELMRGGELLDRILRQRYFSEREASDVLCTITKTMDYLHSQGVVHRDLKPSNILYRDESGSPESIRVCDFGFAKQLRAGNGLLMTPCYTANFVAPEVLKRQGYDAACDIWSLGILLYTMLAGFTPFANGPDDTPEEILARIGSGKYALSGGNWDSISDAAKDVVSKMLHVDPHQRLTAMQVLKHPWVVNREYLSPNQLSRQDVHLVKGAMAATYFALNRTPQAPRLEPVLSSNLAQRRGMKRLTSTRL

Row | Binder | % activity, 100 µM (Flt4(h)) | % activity, 100 µM (HIPK1(h)) | % activity, 100 µM (MKK7β(h)) | % activity, 100 µM (GSK3α(h)) | % activity, 100 µM (PKCγ(h)) | % activity, 100 µM (ASK1(h)) | % activity, 100 µM (Aurora-B(h)) | % activity, 100 µM (ROCK-II(h)) | % activity, 100 µM (cKit(V654A)(h)) | % activity, 100 µM (EphA2(h)) | % activity, 100 µM (CaMKIIγ(h)) | % activity, 100 µM (Abl(h)) | % activity, 100 µM (HIPK2(h)) | % activity, 100 µM (Axl(h)) | % activity, 100 µM (CDK1/cyclinB(h)) | % activity, 100 µM (EphA8(h)) | % activity, 100 µM (Rsk3(h))
1 | FAKLAARLYRKALARQLGVAA [MMI-0300] | 83% | 74% | 100% | 157% | 89% | 80% | 128% | 74% | 134% | 31% | 5% | 69% | 73% | 52% | 73% | 93% | 76%
2 | KAFAKLAARLYRKALARQLGVAA [MMI-0400] | 89% | 91% | 94% | 164% | 79% | 69% | 150% | 77% | 150% | 17% | 3% | 84% | 90% | 41% | 74% | 146% | 71%

— patent publication US20140072613A1 (published 2014)
